Test results as given in a protein production outcome set (Wang et al. 2014).

test: label from the status in PepcDB records

Sequence	protein production
MNVEGMATGGIHMELHCPKCQHVLDQDNGHARCPSCGEFIEMKALCPDCHQPLQVLKACGAVDYFCQHGHGLISKKRVEFVLALEHHHHHH	failed
MNVKKNIALPAIMVGTFILEGVISLQFGNGLFNDKHLFIPHFLLVMLTIMTCFYKRNTTLVYAFILGLLFDIYYTGVMGIYFAIFPFTVYITDKFMKVLQNNIFLVGLITVFNIILTESLVYAFYYLIGSTTMTIPVFIDQRLWTTILFNLAFFLVIFFPFRLFLDRLVKSE	failed
MNVLALDTSQRIRIGLRKGEDLFEISYTGEKKHAEILPVVVKKLLDELDLKVKDLDVVGVGIGPGGLTGLRVGIATVVGLVSPYDIPVAPLNSFEMTAKSCPADGVVLVARRARKGYHYCAVYLKDKGLNPLKEPSVVSDEELEEITKEFSPKIVLKDDLLISPAVLVEESERLFREKKTIHYYEIEPLYLQKSIAELNWEKKKRG	not failed
MNVLLVSVNREHAPYPVFPLGLACLAGPLRAAGHRLSVLDLCFAADPEEATRQALAEFSPDVVVLSLRNIDNVTYPGSRSYLSGVRDVVAICRERAAVVVGGSGFSLMPREVLAYLGADYGVVGEGEDVLPRLLARIAAGEGGDGLPGVVARENAGFLPPHPVQAIGTPLRGLFQVERYHREGGMANIQTKRGCPFSCIYCTYPLLEGERMRLRPVADIIAEIGDLVDVHGVSYLYFVDDIFNYPLEFALELCRAMSAARLPVAWSAFINPDFLPPQLLDAMLAAGCDALEFGTDSGSPVMLRNLRKSFGIEKVREASRLCREAGVDFAHYILFGGPGETPATIAESFALMDEVAPTAVIAMTGIRIFPGTAIYRQALADGLITPETDLLRPAFYIAPTIADTLCELVREEALKRTNWVVPGLEITANDAMLEALRHFAGPGPLWKMLKLLGRRRGSVPSPWSHSPS	failed
MNVPDMILYNGKITTLDPSQPEVSAIAITDGLITAVGGDELLNSATEKTKKIDLKRKRAIPGLEHHHHHH	not failed
MNVRNNTKLITINALLLAIGVILHQITPILGLPMQPDFALTMLFIIIILNDNFKITMVSGTLMGIFTAMTTKFPGGQLPNVVDKIFTALIVFLFIALIKKSNILGRLSVEKRNNILIAIVLPLGTLVSGILFLGTAKIIVGLPASFSILFLTVVVPSIALNTVIGLVLYRIVEKSLRRASYSIRG	failed
MNVTTTRFGEIAVEEAKIITLPDGMLGFSEKRFVLLTPQNITPFCWLQSVENPELAFVVVDTKECASDYAVKLTAEESEKLCVNDGDEVVLLAVVTMASDPFNITVNLQGPIALNPKRMLAKQIVLEGSRYTTKHPFFDQAARSKAPGKRNASGEVTAA	not failed
MNVWQVVGYKHSGKTTLMEKWVAAAVREGWRVGTVKHHGHGGEPARPEGVDSVRHERAGAVATAVEGDGLLQLHLRRPLWRLDDVLALYAPLRLDLVLVEGYKQERHPKVVLVRSEEDWASLQHLANIRAVIAWEPLEGPLAHPVFSLADDDEYIPWLMNEVRTRT	not failed
MNWAKFRETGSPEDTDMSSTPISSDTTAVSKVIDPNYVLMVADFFKAISPDESCNDFTSFDSFSVLFQNNTRALSIARGRVSCSVTVTPGISNFFKGLHGGAVASIAERVAMACVKTVVSEDKHLFIGELSMSYLSSAPISSELLVEGTVVRTGRNLSVVTVEFKIKETMKVTYLSRATFYHSPISKL	failed
MNWVTHKPTFEFDNFSPFIRANTAWLGHLEFAYDLVRFEKPEILVELGTHMGASFFSFCQGVKDGGLATKCFAVDTWTGDGHTGPYGEGVFHIVDKVVKTSYPNIGNLIKSTFDEAVDQFQDGTINLLHIDGYHTYEAVSHDYKTWLPKLADNGIVLFHDIEVKDRNFGVYKFWDEVKAKYPHFQFQHSYGLGVLFPKGCSDRFKEILKNKEEIQDMYKLEHHHHHH	not failed
MNYFATVARGLETLAAQELEQLGAHSVEPGFCGVAFEGDRTLLYRVNLWARLPFRILVDIHEFPCLDAKDLYRGIQTIDWQNYLTPDMTLAVNVTGKNAHLNHSHFTSLQVKNAIVDQQQEKLGERSNVELHEPDVRVNVHIERDFCTVKLDSSGNSLHRRGYRPAVGSAPLKESLAAALIQLSGWKQDQMFYDPLCGSGTLPLEASLKALNIAPGLFRESFGFENWLDFDLVLLEKLLQEAKDSQLDTLPAPIWGSDHDENVIEQAINNAQNCGVDNHVWFSQMELADVVAPADSGILLCNPPYGERLGRDSDLGAFYKLLGDVLKQRFKGWTAFVLSGNKELSQSIGLKSSKRIAVYNGALPCQLMKYELY	failed
MNYNSIPTEIIDTILAELKIGLTLVNNTGKIIYFNQLAGELLGWDNKLPENTILSCHKKENQPKVIEKLNQPAAMEWHKVIKTQNRFIENAYSPINIPDKFMGAMILTKDVTAREESLEKLKKNAETDALTGLYNRNLFHTVIQSYITESKPYGLIMLDISGLKYINDHFGHEEGDRILKEAAEAIRSSIRDTDFAFRFGGDEFLILTSYQEAVLKTIANRIRSKNKIPTENTPAVLNLSLGYATSLEEKNMEAVLSSADQRMYRDKQLFYLGDGKYFKQ	failed
MNYSKLKSIPIYFSLLAISVSNVGCVQQDVEANLTSKTLSENLDSKALRHKNKEQDIESLLAQLTLEEKISLVHANTKFANAAVERLGIHSMEMSDGPHGVRRQISRDSWKPAGWDDDQATYLPPLTAVAASWDPQMATLHGNVLGSEARHRNKDVILGPGVNLARLPLYGRNFEYLGEDPFLAAKLVVPEIIAIQANDVAATVKHFALNTQELNRHGVDATPDERTLREVYLPAFEAAVKEGNTYAMMGSYNNVYGTNANQNKHLIMDILKGEWGYQGLLMTDWDVDINTYDAAMNGLDLEMGTRAKSYDDYFLAKPLLKMIQSGKVPVAVLDDKVRRILRVQLSIGMMDKQRFSGQRNTQEHRDFSRQIATQGVVLLKNESVASANHTNTVLPLDKNKVKNILVLGPNADKKHGSGGGSSQVKSLWEITPLQGLKDKLGDNVEIQFMRARSQSGVQPIAEDFVKTNNRGTGTPAWRLIEYKTKDRNKKAAHYGWLPESSYNSPLGDVIQHINLKADIMPLASGEHVLKLGGKGNVNLVINGKEVINTTLSGDKTYQHKLTLKQGKKYVFTLGYDGADNVVLGWNAPGSPFSTKDEYLAAAKNADAVIYYAGLSHADDRESKDRSNMVLPNNQDDIISDLIAVNSTTVVFVIGGSAVEMPWAEQANAIVWGWYGGMEAGHSYADILFGDVNPSGKMPITLPKKLTDTAPIVLNDYNEKTSTYPEGVFIGYRWFEQQNIEPLFPFGHGLSYTHFSFGDISLNKDVISAGETITASVKITNTGKVAGAEVVQLYLHDEESSVPRPVKELKGFEKVFLQPGESQTVMLTLTQRDLSFWDVNTKNWLAEQGQFSVHIGSSVNDIKTSTSFSYQ	failed
MNYVKYHLLALLVTLLVAGSFISSEKLSGVVNPFSLTLLRFVIAAFTLLPFVLFKAQYRKGIIRALPRSLIMSVFFSVFFICMFEALKTTTPLNTGTLYTLVPFLTAIFSIFAFKEKITKKRLVVYLIGSAGTSWIIFGGDIEALLAFSLNGGDALFIGGCISMVCYSISMKFLYRGDEIIVIVFCTLFCGALWMLLALLVFNQPLQWHLLKSDLWFHMGYLALFATLASTFIIQKTTVVLGPSKVMAYIYLNPICVAFLMLFIEGKSIPSIVFPGMIISLIATIVLQFQNRNNANK	failed
MPAETNEYLSRFVEYMTGERKSRYTIKEYRFLVDQFLSFMNKKPDEITPMDIERYKNFLAVKKR	failed
MPAFSTRHLGAVAAALALTVASPAATASAAPDAPAGLREVMFVGNNWDGTADVIRSTGDFARIGRIDVVPDKAERMAEINADPIKWIYFQAIRNGVGEGHDQLVDDMYSTPDGTSVVVSRPSFADVVSVDLATGDINWRFPVSGYRSDHMAVSPDGTRVAVSASTSNTVHVLDIRTGEQVGSFGTGDKPHENIFTRDGRYIWNMSIGDVNTALDAPWLDWTKGDRRITVVDAKTYRQVKVIDMRQRLDAIGLGDHSDAVRPAVFSPDESKLYFQVSFFNGFFEYDVAGDRITRTKTLPKNPATSEDRTTWVNDSRHHGLSMSPDGARICVAGTMDDYATVVNRDTLEEGPLVPAAKPYWATVSGDGTHCVVSESGADQVTAIDFATGEKSVSVPVGDHPQRVRIGRVAADWTGPSAG	failed
MPAGCESNPRLVGHPFMTTILAIAVFGAVGCVARYLLAGGVYALAGRAFPWGTLAVNVIGAFLIGLIMEAALRTTLMSQELRLGLTIGFLGGFTTFSTFSYETFKLLEDGEFFSASLNVLASVALCLVGTWAGIMAARQL	failed
MPAIFTHEGKVEGVPGNYPLTAENLFRIGLALCTLWILDKEIEEPTLSIPETNFVTLALSVGFMNAGGSVNVGKGGDIKLFLQKGEIYVLEFQPLSETDIKKLESILFGRAPIPKKTGEDIGSFKC	not failed
MPAKPIDLGPMHFEKKEDAVAYLHKMLHRYDLGDKVSDDDAIILRAALAHHRDAEVKVGCGITYFSVRTADFGTRCFWLNRNDGTTEKFSHKTCIYSTLEHHHHHH	not failed
MPAKQPTPKQEPATKAGRCLARSFMKTLIKDCSVSAIVAGSIATTISYAGPLVIIFHAAEAAGLSHQQLSSWVWAVSMGSALLGALLSLRYRVPVVIAWSIPGSALLVTALPQLGLEQAVGAYLVANLVLLLIGISGAFDRIIARLPGSIAAGMQAGILFSFGIEVFRALPVQPLLVLAMFVTYVLMRRVQPRYAVAAVLGVGMLVTVASGTLRSEALVLELASPQWITPQFSLSAVFSLALPMVLVALTGQFMPGMAVLRNAGYPTPASPLISASALIGVLLAPFGCHGLNLAAVTASLCTGHEAHENPQRRYVAAVAGSVLYLLLGIAGATLMSLFAAFPAVLIAALAGLALYGAISEALVRSLAEPAERDAGLFTFLVTASGVAFLGLSAAFWGLLFGLLAHALLRLRQPRAREVLRRTP	not failed
MPALCSTVQTLEKLAKDDVSSLALLGRSVMHDNALTSRILRVANSAIYHKGSTQISTVSRAAIVLGFDAVRNICITAQLLSSLLESKNLAPSVYQRLIKLMAKAFQAAMLTRMMLSDYDDDIQEEAFIACLLFHIGESAFWSIGGEFTETLDSQLTECETSADERSLIRETIGTSFSQLTQSIARHWGLGELLIQAVNYPDDPRPEIRSIFLADKLCDTLSVATPDKNDLEKYINQAANFTGLDETEFTLKMQRCTKATHKLAEAYGAKVLIDYLPDPQRIDKLEPYLPEAELPIFEANLNVQLVKLRELTAFAINKADFNQIMQTVLEGILEGVGVDRCGVLLLSPSRKQLQPRIMLGRDAEEMKRQFIIELGDRKGLFPMAMEHKESLWVDSPCAKKWQEQCRELKVQLPESGFLVAPLLVDNKVIGFYYADRGPSERCFAEVDFQAFIHFSQLANVCFTVSLK	failed
MPALDLIRPSVTAMRVIASVNADFARELKLPPHIRSLGLISADSDDVTYIAADEATKQAMVEVVYGRSLYAGAAHGPSPTAGEVLIMLGGPNPAEVRAGLDAMIAHIENGAAFQWANDAQDTAFLAHVVSRTGSYLSSTAGITLGDPMAYLVAPPLEATYGIDAALKSADVQLATYVPPPSETNYSAAFLTGSQAACKAACNAFTDAVLEIARNPIQRA	failed
